Patent US20060252692A1, “Inhibitors for use in hemostasis” (ZymoGenetics, Inc., priority 2002, published 2006)

Legend:
A7-BaF-3 cells = assay: Proliferation assay on zsig37-coated plates, A7-BaF-3; assay type: cell-based; conditions: 5,000 cells/well
Method: (§1) A second assay was performed with TF-1, DA-1, an IL-3 dependent cell line derived from the lymph node of a mouse with a B-cell lymphoma by outgrowth in IL-3 media, pre-B (p53−/− mouse marrow cells, IL-7 dependent, B220+, Thy1 low, Sca-1+), and A7BaF-3 cell lines as described above at 5,000 cells/well. BHK cells were also plated at 500 cells/well.

DA-1 cells = assay: Proliferation assay on zsig37-coated plates, DA-1; assay type: cell-based, mouse; conditions: 5,000 cells/well
Method: as §1

[1] = test system: norepinepherin contracted aortic rings; assay: Vasodilatation of norepinepherin contracted aortic rings; parameters: species or system Sprague Dawley rats; conditions: 323, 162, and 81 ng/ml
Method: The effect of zsig37 on vasodilatation of aortic rings was measured according to the procedures of (Dainty et al., J. Pharmacol. 100:767 (1990), and Rhee et al., Neurotox. 16:179 (1995)). Briefly, aortic rings 4 mm in length were taken from 4 month old Sprague Dawley rats and placed in modified Krebs solution (118.5 mM NaCl, 4.6 mM KCl, 1.2 mM MgSO4.7H2O, 1.2 mM KH2PO4, 2.5 mM CaCl2.2H2O, 24.8 mM NaHCO3 and 10 mM glucose). The rings were then attached to an isometric force transducer (Radnoti Inc.; Monrovia, Calif.) and the data recorded with a Ponemah physiology platform (Gould Instrument systems, Inc.; Valley View, Ohio) and placed in a 10 ml tissue bath oxygenated (95% O2, 5% CO2) modified Krebs solution. The tissues were adjusted to one gram resting tension and allowed to stabilize for one hour before testing.
The rings were tested by 5 μl additions of […] norepinepherin (Sigma Chemical Co.; St. Louis, Mo.) to a final concentration of about 1×10^−9 M and Carbachol, a muscarinic acetylcholine agonist (Sigma Chemical Co.) at 2×10^−7 M final, to test the integrity of the rings. After each test, the rings were washed three times with fresh buffer, five minutes between washes and allowed to rest one hour. […] Zsig37 was then added to one, two, or three of the four baths, without flushing, and tension on the rings was recorded and compared to the control rings. […]

[2] = test system: alternate pathway of human Complement serum; assay: Complement hemolysis assay, alternate pathway (rabbit erythrocytes and EGTA); assay type: biochemical
Method: Complement assays were performed in 96 well round bottom plates. Gelatin Veronal buffer containing magnesium and calcium (141 mM NaCl, 1.8 mM sodium barbitol, 3.1 mM barbituric acid, 0.1% bovine gelatin, 0.5 mM MgCl2 and 0.15 mM CaCl2) was used for all serum and inhibitor dilutions as well as erythrocyte suspensions. Fifty microliters of standardized human Complement serum (Sigma Chemical Co.), diluted 1/37.5 (for a final dilution of 1/150) was added to each well. The inhibitor was added in triplicate, 50 μl/well. The serum and inhibitor were incubated for thirty minutes at room temperature. The assay was initiated by the addition of 100 μl of 2×10^8/ml unsensitized sheep erythrocytes (Colorado Serum Co.; Denver, Colo.), sensitized sheep erythrocytes, sensitized using the Hemolysin manufacturer's protocol (BioWhittaker Inc.; Walkersville, Md.) and rabbit erythrocytes containing 16 mM EGTA, and 4 mM Mg^++. A human serum dilution series from 1/50 to 1/400 was also plated as an activity control. Erythrocytes, lysed with distilled water and diluted to 100, 75, 50, 25, and 12.5 percent lysis, were used to quantify complement percent lysis. The plate was sealed and incubated at 37° C. for one hour with mixing every 15 minutes. […] The plate was read at 415 nm and percent lysis was calculated.

[3] = test system: iliac artery crush injury/stenosis; assay: Rabbit iliac artery crush injury/stenosis model; assay type: in vivo, New Zealand White rabbits
Method: The effect of zsig37 on blood flow dynamics following vascular injury in a rabbit iliac artery crush injury/stenosis model was also evaluated. Young adult male New Zealand White rabbits were anesthetized as described above. Via an abdominal incision, the aorto-iliac bifurcation was exposed and each iliac freed of surrounding tissues and the main branches ligated. Each iliac was fitted with an ultrasound flow probe to monitor blood flow through the vessel. Based on blood flow data, one iliac was selected to be used for the injury and the other was catheterized for delivery of the test sample. Rabbits were divided into dose groups of 6 animals/group. Test sample doses containing zsig37 increased in half-log increments from 3-1000 μg/kg over the selected infusion period. The test samples infusion was initiated followed by creation of a critical stenosis that reduced blood flow through the vessel by approximately 50%. After creation of the stenosis and a period of blood flow stabilization, the vessel was injured by crushing the vessel between the jaws of a smooth needle holder. The infusion was continued post-injury for a set period of time, 10-20 minutes. Blood flow through the injured vessel was monitored for 60 minutes post-injury. The animals were euthanized at he conclusion of the study period. […]

B1: zsig37: adipocyte complement related protein homolog, polypeptide of SEQ ID NO:2, inhibits collagen-mediated platelet activation and the complement pathway (protein, listed as Homo sapiens)
chain: MGSRGQGLLLAYCLLLAFASGLVLSRVPHVQGEQQEWEGTEELPSPPDHAERAEEQHEKYRPSQDQGLPASRCLRCCDPGTSMYPATAVPQINITILKGEKGDRGDRGLQGKYGKTGSAGARGHTGPKGQKGSMGAPGERCKSHYAAFSVGRKKPMHSNHYYQTVIFDTEFVNLYDHFNMFTGKFYCYVPGLYFFSLNVHTWNQKETYLHIMKNEEEVVILFAQVGDRSIMQSQSLMLELREQDQVWVRLYKGERENAIFSEELDTYITFSGYLVKHATEP
- growth of A7-BaF-3 cells (A7-BaF-3 cells): enhanced the growth
- growth of DA-1 cells (DA-1 cells): slightly inhibited growth
- dose response of vasodilatation [1]: dose response could not be determined
- rings vasodilated ([1]; two of seven controls dilated, Fisher exact P 0.045): 10 of the 12
- inhibition of alternate pathway lysis [2]: no apparent inhibition
- patency time ([3]; 3-1000 μg/kg infusion, 60 minute period): tendency for zsig37 to promote increased patency time with increased dose up to 300 μg/kg
- thrombolytic activity ([3]; study with zsig37 hexamer, flow starting from occlusion): possesses thrombolytic activity
